Literature values, collected in publication PMC7850986.

Tests used:
[1] = target: IFNAR2 (Homo sapiens) (UniProt P48551)
[2] = target: IFNAR1 (Homo sapiens) (UniProt P17181)
UniProt P17181, sequence (P17181 28-436): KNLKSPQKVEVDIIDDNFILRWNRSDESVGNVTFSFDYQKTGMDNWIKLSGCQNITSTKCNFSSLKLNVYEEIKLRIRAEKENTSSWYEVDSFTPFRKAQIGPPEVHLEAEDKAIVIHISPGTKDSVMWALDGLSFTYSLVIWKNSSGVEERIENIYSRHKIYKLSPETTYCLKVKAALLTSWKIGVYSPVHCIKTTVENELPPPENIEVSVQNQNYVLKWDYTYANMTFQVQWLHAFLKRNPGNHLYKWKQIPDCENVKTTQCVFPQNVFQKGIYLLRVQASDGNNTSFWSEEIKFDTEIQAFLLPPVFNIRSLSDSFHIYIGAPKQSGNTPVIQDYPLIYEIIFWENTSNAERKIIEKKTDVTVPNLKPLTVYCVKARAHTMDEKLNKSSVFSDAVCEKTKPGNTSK

UniProt P48551, sequence (P48551 27-243): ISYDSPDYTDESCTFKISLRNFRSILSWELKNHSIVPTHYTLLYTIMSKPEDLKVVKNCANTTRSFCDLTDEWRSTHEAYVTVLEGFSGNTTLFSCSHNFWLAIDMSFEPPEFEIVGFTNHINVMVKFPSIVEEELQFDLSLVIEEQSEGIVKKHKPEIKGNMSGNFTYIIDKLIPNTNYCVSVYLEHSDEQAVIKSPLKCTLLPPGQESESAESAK

IFNβ (from UniProt P01574)
Kd [1]: 0.1 nM
Kd [2]: 100 nM
